According to publication PMC6555819, “Comprehensive study of nuclear receptor DNA binding provides a revised framework for understanding receptor specificity”:

B1: NRC3_wobSeed86_DR3_C13A_o1 (dsDNA)
DNA 1: GCGCTGCTAGGTAAGGTTGGTCAGCTAACGGGTACGGCGATTGACAGCGTAGAATGAAGG
DNA 2: CCTTCATTCTACGCTGTCAATCGCCGTACCCGTTAGCTGACCAACCTTACCTAGCAGCGC
B2: NRC3_wobSeed124_DR5_T23A_o1 (dsDNA)
DNA 1: GCCCTACTGGGCCATTCAGAGGACATTGATCATATGGCGATTGACAGCGTAGAATGAAGG
DNA 2: CCTTCATTCTACGCTGTCAATCGCCATATGATCAATGTCCTCTGAATGGCCCAGTAGGGC
B3: NRC3_wobSeed16_DR0_C13G_o1 (dsDNA)
DNA 1: GCCAGCCTAGGTGAGGGCCAGTATAGGAGGAACGTTGCGATTGACAGCGTAGAATGAAGG
DNA 2: CCTTCATTCTACGCTGTCAATCGCAACGTTCCTCCTATACTGGCCCTCACCTAGGCTGGC
B4: NRC3_wobSeed34_DR1_A9T_o1 (dsDNA)
DNA 1: GCATCGAATGGTCGAAGGTGAGTATACCCACCCGAAGCGATTGACAGCGTAGAATGAAGG
DNA 2: CCTTCATTCTACGCTGTCAATCGCTTCGGGTGGGTATACTCACCTTCGACCATTCGATGC
B5: NRC3_wobSeed65_DR2_A5T_o1 (dsDNA)
DNA 1: GCATTTGTAGGTTATCGGGTCATTCAGTTTGCGCATGCGATTGACAGCGTAGAATGAAGG
DNA 2: CCTTCATTCTACGCTGTCAATCGCATGCGCAAACTGAATGACCCGATAACCTACAAATGC
B6: NRC3_wobSeed90_DR3_A14C_o1 (dsDNA)
DNA 1: GCCATACAGGGTCCGCTAGGCCAGAGTAGGGACGGCGCGATTGACAGCGTAGAATGAAGG
DNA 2: CCTTCATTCTACGCTGTCAATCGCGCCGTCCCTACTCTGGCCTAGCGGACCCTGTATGGC
B7: NRC3_wobSeed38_DR1_A14T_o1 (dsDNA)
DNA 1: GCCCTGCTAGGTCTATGGTCAGCTAAAGCAGCTCGCGCGATTGACAGCGTAGAATGAAGG
DNA 2: CCTTCATTCTACGCTGTCAATCGCGCGAGCTGCTTTAGCTGACCATAGACCTAGCAGGGC
B8: NRC3_wobSeed30_DR1_G17A_o1 (dsDNA)
DNA 1: GCACTAGCAGGCCAAGAGTCACTCAAGATTAGTCCGGCGATTGACAGCGTAGAATGAAGG
DNA 2: CCTTCATTCTACGCTGTCAATCGCCGGACTAATCTTGAGTGACTCTTGGCCTGCTAGTGC
B9: NRC3_wobSeed138_DR5_G10A_o1 (dsDNA)
DNA 1: GCGATACAGAGTCAGCTAGAGGCCAGAGTATGGAAAGCGATTGACAGCGTAGAATGAAGG
DNA 2: CCTTCATTCTACGCTGTCAATCGCTTTCCATACTCTGGCCTCTAGCTGACTCTGTATCGC
B10: NRC3_wobSeed21_DR0_A14T_o1 (dsDNA)
DNA 1: GCCGTCAAAGTTCTAGGTAACGTAACAGAAAGCAGCGCGATTGACAGCGTAGAATGAAGG
DNA 2: CCTTCATTCTACGCTGTCAATCGCGCTGCTTTCTGTTACGTTACCTAGAACTTTGACGGC
B11: NRC3_wobSeed100_DR4_C23A_o1 (dsDNA)
DNA 1: GCCCTACTGGGCCACGAAAGGTAATTGATTCAGTGAGCGATTGACAGCGTAGAATGAAGG
DNA 2: CCTTCATTCTACGCTGTCAATCGCTCACTGAATCAATTACCTTTCGTGGCCCAGTAGGGC
B12: NRC3_wobSeed15_DR0_G11C_o1 (dsDNA)
DNA 1: GCCGAACTAGCTCAAGGACAGTGAATCTCCGCACGCGCGATTGACAGCGTAGAATGAAGG
DNA 2: CCTTCATTCTACGCTGTCAATCGCGCGTGCGGAGATTCACTGTCCTTGAGCTAGTTCGGC
B13: NRC3_wobSeed136_DR5_A14C_o1 (dsDNA)
DNA 1: GCTAGCCTAGGTCCTTCAGGGGCCAGTATAGAAAGCGCGATTGACAGCGTAGAATGAAGG
DNA 2: CCTTCATTCTACGCTGTCAATCGCGCTTTCTATACTGGCCCCTGAAGGACCTAGGCTAGC
B14: NRC3_wobSeed114_DR4_T12A_o1 (dsDNA)
DNA 1: GCAATACAGGGACATCGTAGGCCAGAGTACGCACAGGCGATTGACAGCGTAGAATGAAGG
DNA 2: CCTTCATTCTACGCTGTCAATCGCCTGTGCGTACTCTGGCCTACGATGTCCCTGTATTGC
B15: NRC3_wobSeed40_DR1_T12C_o1 (dsDNA)
DNA 1: GCTAGCCTAGGCCATGGGCCAGTATACCACGCGAACGCGATTGACAGCGTAGAATGAAGG
DNA 2: CCTTCATTCTACGCTGTCAATCGCGTTCGCGTGGTATACTGGCCCATGGCCTAGGCTAGC
B16: NRC3_wobSeed66_DR2_G11A_o1 (dsDNA)
DNA 1: GCAATACAGGATCACTAGGCCAGAGTAGGTACGAATGCGATTGACAGCGTAGAATGAAGG
DNA 2: CCTTCATTCTACGCTGTCAATCGCATTCGTACCTACTCTGGCCTAGTGATCCTGTATTGC
B17: NRC3_wobSeed98_DR4_G11C_o1 (dsDNA)
DNA 1: GCACTAGTTGCTCAGCTGAGGTCACACACAATTCGGGCGATTGACAGCGTAGAATGAAGG
DNA 2: CCTTCATTCTACGCTGTCAATCGCCCGAATTGTGTGTGACCTCAGCTGAGCAACTAGTGC
B18: NRC3_wobSeed76_DR3_G19T_o1 (dsDNA)
DNA 1: GCCCTACTGGGCCAAAAATGTCATTGATGCCGATAAGCGATTGACAGCGTAGAATGAAGG
DNA 2: CCTTCATTCTACGCTGTCAATCGCTTATCGGCATCAATGACATTTTTGGCCCAGTAGGGC
B19: NRC3_wobSeed93_DR3_G10T_o1 (dsDNA)
DNA 1: GCAGTCAAATTTCATCTAGGTAACGTAAGATATGCTGCGATTGACAGCGTAGAATGAAGG
DNA 2: CCTTCATTCTACGCTGTCAATCGCAGCATATCTTACGTTACCTAGATGAAATTTGACTGC
B20: NRC3_wobSeed28_DR1_A21C_o1 (dsDNA)
DNA 1: GCCCTACTGGGCCAAAGGTCCTTGATTCCAATGCTCGCGATTGACAGCGTAGAATGAAGG
DNA 2: CCTTCATTCTACGCTGTCAATCGCGAGCATTGGAATCAAGGACCTTTGGCCCAGTAGGGC
B21: NRC3_wobSeed87_DR3_T12A_o1 (dsDNA)
DNA 1: GCCGAACTAGGACATCCAGGACAGTGAATACATTGAGCGATTGACAGCGTAGAATGAAGG
DNA 2: CCTTCATTCTACGCTGTCAATCGCTCAATGTATTCACTGTCCTGGATGTCCTAGTTCGGC
B22: NRC3_wobSeed10_DR0_A7G_o1 (dsDNA)
DNA 1: GCATCGGAAGGTCGAGGTGAGTATAGAGAAAGGGAAGCGATTGACAGCGTAGAATGAAGG
DNA 2: CCTTCATTCTACGCTGTCAATCGCTTCCCTTTCTCTATACTCACCTCGACCTTCCGATGC
B23: NRC3_wobSeed117_DR4_T11C_o1 (dsDNA)
DNA 1: GCCGTCAAAGCTCAACTAAGGTAACGTAAAGCACGCGCGATTGACAGCGTAGAATGAAGG
DNA 2: CCTTCATTCTACGCTGTCAATCGCGCGTGCTTTACGTTACCTTAGTTGAGCTTTGACGGC
B24: NRC3_wobSeed111_DR4_G21T_o1 (dsDNA)
DNA 1: GCCGAACTAGGTCAGAACAGTACAGTGAAGGATGATGCGATTGACAGCGTAGAATGAAGG
DNA 2: CCTTCATTCTACGCTGTCAATCGCATCATCCTTCACTGTACTGTTCTGACCTAGTTCGGC

What follows are binders tested against RARb:RXRa (Homo sapiens, UniProt P10826;P19793 full;full) (assay: no ligand; PBM; 270 nM : 90 nM RXRa; PBS pH 7.4, 2% milk, 0.02% Triton X-100, 1 mM DTT, BSA, 0.4 mg/ml salmon testes DNA). Conditions: tags: His kept;His cleaved; copies: 1;1; label: surface-attached array probe.
Summary of the method: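 For binding z-scores, the reference was random background probes on custom Agilent 4×180K protein-binding microarrays. These arrays were incubated 1 h with ligand-free nuclear receptor dimers in PBS pH 7.4, 2% milk, 0.02% Triton X-100, 1 mM DTT, 0.2 mg/mL BSA and 0.4 mg/ml salmon testes DNA. Fluorescence was scanned after antibody detection of each partner (one per run) and regression-normalized.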

Chain of RARb:RXRa (P10826 whole entry, chain 1 of 2): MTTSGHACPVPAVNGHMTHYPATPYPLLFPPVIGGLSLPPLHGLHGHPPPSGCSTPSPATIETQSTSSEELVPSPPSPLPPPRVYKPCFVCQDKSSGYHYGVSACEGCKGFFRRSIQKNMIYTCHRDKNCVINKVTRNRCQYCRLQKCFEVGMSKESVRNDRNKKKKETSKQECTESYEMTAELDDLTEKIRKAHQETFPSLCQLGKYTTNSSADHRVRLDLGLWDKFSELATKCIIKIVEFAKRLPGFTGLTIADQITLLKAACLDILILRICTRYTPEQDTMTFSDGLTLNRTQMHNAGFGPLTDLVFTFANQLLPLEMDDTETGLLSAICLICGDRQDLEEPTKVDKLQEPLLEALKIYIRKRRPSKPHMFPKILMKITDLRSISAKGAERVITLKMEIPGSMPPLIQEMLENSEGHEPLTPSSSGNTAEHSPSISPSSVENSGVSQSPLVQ
Chain of RARb:RXRa (P19793 whole entry, chain 2 of 2): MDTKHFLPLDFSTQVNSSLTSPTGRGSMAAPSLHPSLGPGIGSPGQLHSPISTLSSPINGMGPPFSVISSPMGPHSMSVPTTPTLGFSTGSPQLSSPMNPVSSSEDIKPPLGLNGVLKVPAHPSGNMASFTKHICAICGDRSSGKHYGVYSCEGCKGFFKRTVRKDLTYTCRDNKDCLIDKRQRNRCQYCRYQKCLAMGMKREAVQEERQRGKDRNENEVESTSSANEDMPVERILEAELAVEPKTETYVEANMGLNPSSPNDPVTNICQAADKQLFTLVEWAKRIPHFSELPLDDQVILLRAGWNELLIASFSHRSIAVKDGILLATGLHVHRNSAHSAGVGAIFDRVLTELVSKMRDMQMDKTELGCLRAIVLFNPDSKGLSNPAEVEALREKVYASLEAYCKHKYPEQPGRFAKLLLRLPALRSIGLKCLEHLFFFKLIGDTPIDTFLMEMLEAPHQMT

**Q.** How did the binding signal turn out when B1 was run?
**A.** 0.16 PBM z-score against 500 random probes

**Q.** B2 was tested. Which binding signal did it give?
**A.** 0.46 PBM z-score against 500 random probes

**Q.** With B3 as the binder, how does the binding signal read?
**A.** 0.33 PBM z-score against 500 random probes

**Q.** For B4, which binding signal is on record?
**A.** 0.4 PBM z-score against 500 random probes

**Q.** B5 was tested. Which binding signal did it give?
**A.** 3 PBM z-score against 500 random probes

**Q.** How did the binding signal turn out when B6 was run?
**A.** 0.26 PBM z-score against 500 random probes

**Q.** Which binding signal does the source give for B7 here?
**A.** 0.39 PBM z-score against 500 random probes

**Q.** How did the binding signal turn out when B8 was run?
**A.** 0.46 PBM z-score against 500 random probes

**Q.** Which binding signal does the source give for B9 here?
**A.** 0.27 PBM z-score against 500 random probes

**Q.** B10 was tested. Which binding signal did it give?
**A.** 0.4 PBM z-score against 500 random probes

**Q.** For B11, which binding signal is on record?
**A.** 0.41 PBM z-score against 500 random probes

**Q.** For B12, which binding signal is on record?
**A.** 0.3 PBM z-score against 500 random probes

**Q.** How did the binding signal turn out when B13 was run?
**A.** 0.43 PBM z-score against 500 random probes

**Q.** B14 was tested. Which binding signal did it give?
**A.** 0.47 PBM z-score against 500 random probes

**Q.** Which binding signal does the source give for B15 here?
**A.** 0.19 PBM z-score against 500 random probes

**Q.** With B16 as the binder, how does the binding signal read?
**A.** 0.18 PBM z-score against 500 random probes

**Q.** How did the binding signal turn out when B17 was run?
**A.** 3.01 PBM z-score against 500 random probes

**Q.** For B18, which binding signal is on record?
**A.** 0.29 PBM z-score against 500 random probes

**Q.** For B19, which binding signal is on record?
**A.** 0.23 PBM z-score against 500 random probes

**Q.** How did the binding signal turn out when B20 was run?
**A.** 0.42 PBM z-score against 500 random probes

**Q.** Which binding signal does the source give for B21 here?
**A.** 0.14 PBM z-score against 500 random probes

**Q.** For B22, which binding signal is on record?
**A.** 3 PBM z-score against 500 random probes

**Q.** How did the binding signal turn out when B23 was run?
**A.** 0.06 PBM z-score against 500 random probes

**Q.** Which binding signal does the source give for B24 here?
**A.** 3.01 PBM z-score against 500 random probes
